Data as given in US20080194611.

Biological target: S1P3 receptor (UniProt Q99500)
Sequence (Q99500 whole entry): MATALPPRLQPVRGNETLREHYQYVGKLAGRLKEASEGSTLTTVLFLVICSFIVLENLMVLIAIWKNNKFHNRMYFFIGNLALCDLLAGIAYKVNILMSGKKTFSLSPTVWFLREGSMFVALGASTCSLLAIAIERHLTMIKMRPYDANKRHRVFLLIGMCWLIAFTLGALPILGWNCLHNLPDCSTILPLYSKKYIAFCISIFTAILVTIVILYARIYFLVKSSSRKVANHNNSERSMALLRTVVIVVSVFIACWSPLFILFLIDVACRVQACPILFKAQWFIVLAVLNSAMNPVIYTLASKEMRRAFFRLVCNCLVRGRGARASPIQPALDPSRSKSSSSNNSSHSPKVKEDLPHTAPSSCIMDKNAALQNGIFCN

With recombinant active Src the “in vitro tyrosine phosphorylation of isolated S1P3 receptor (immunoblot)” value was “Src tyrosine phosphorylation of the S1P3 receptor”.
